One block for each binder: values may come before it.
Columns and labels:
[1] = target: T1, human PD-1 expressed on cells (CHO TREX human PD1 cell line, full-length human PD-1 sequence) (human, UniProt Q15116 21-288); assay: worded summary of the screens
T1 construct: Also used for human PD-1 on Jurkat reporter cells, on PathHunter cells and on PHA-stimulated human CD4+ T cells; also called CHO human PD1 cells; CHO human PD-1 cells

[2] = target: T1, human PD-1 expressed on cells (CHO TREX …); assay: cell-based or functional assay

T1 sequence (Q15116 21-288): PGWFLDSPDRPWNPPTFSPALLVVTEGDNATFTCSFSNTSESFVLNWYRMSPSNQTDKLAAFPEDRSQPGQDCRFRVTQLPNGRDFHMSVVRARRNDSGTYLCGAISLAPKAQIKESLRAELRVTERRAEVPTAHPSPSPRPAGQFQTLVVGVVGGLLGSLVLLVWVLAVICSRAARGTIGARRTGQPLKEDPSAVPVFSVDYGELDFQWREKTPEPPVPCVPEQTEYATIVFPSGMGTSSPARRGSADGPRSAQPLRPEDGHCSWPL

EC50 (M), NFAT-Luciferase reporter gene assay [2]: 1e-09 M
B2: 1.92b-4GS-1.99a (other)
chain: EVQLVESGGGLVKPGGSLRLSCAASGFTFSDESMTWMRQAPGKGLEWVSYISSGGGVKFYADSVKGRFTISRDNAKNSLYLQMNSLRAEDTAVYYCAREAPLRLGESPHDAFDISGQGTMVTVSSGGGGSGGGGSGGGGSGGGGSEVQLVESGGGVVRPGGSLRLSCAASGFTFDDYAMSWVRQAPGKGLEWVSGITWNGGSTGYADSVKGRFTISRDNAKNSLYLQMNSLRAEDTALYYCVRDKYSYAWSYDGFDIWGQGTMVTVSS

binding result [1]: binds
B4: 1.52a (VHH)
VHH: EVQLLESGGGVVRPGGSLRLSCAASGFTFDDYGMSWVRQPPGKGLEWVSGISRNGGSAGYSDSAKDRFTISRDNAKNSLYLQMNSLRADDTAMYYCAREKYSSGWSYDDFDIWGQGTMVTVSS

binding result [1]: binds
B7: 1.53a (VHH)
VHH: QVQLVESGGGVVRPGGSLRLSCAASGFTFDDYGMSWVRQSPGKGLEWVSGISRNGGSAGYSDSAKDRFTISRDNAKNSLYLQMNSLRADDTAMYYCAREKYSSGWSYDDFDIWGQGTMVTVSS

binding result [1]: binds
B10: 1.94a (VHH)
VHH: EVQLVESGGGVVRPGGSLRLSCAASGFTFDDYAMSWVRQAPGKGLEWVSGITWTGGSTGYADSVKDRFTISRDNAKNSLYLQMNSLRAEDTALYYCVRDKYSYAWSYDGFDIWGQGTMVTVSS

binding result [1]: binds
B13: 1.97a (VHH)
VHH: EVQLVESGGGVVRPGGSLRLSCAASGFTFDDYAMSWVRQAPGKGLEWVSGITWIGGSTGYADSVKDRFTISRDNAKNSLYLQMNSLRAEDTALYYCVRDKYSYAWSYDGFDIWGQGTMVTVSS

binding result [1]: binds
B15: 1.100a (VHH)
VHH: EVQLVESGGGVVRPGGSLRLSCAASGFTFDDYAMSWVRQAPGKGLEWVSGITWKGGSTGYADSVKDRFTISRDNAKNSLYLQMNSLRAEDTALYYCVRDKYSYAWSYDGFDIWGQGTMVTVSS

binding result [1]: binds
B17: 1.96a (VHH)
VHH: EVQLVESGGGVVRPGGSLRLSCAASGFTFDDYAMSWVRQAPGKGLEWVSGITWPGGSTGYADSVKDRFTISRDNAKNSLYLQMNSLRAEDTALYYCVRDKYSYAWSYDGFDIWGQGTMVTVSS

binding result [1]: binds
B21: 1.92a (VHH)
VHH: EVQLVESGGGVVRPGGSLRLSCAASGFTFDDYAFSWVRQAPGKGLEWVSGITWNGGSTGYADSVKDRFTISRDNAKNSLYLQMNSLRAEDTALYYCVRDKYSYAWSYDGFDIWGQGTMVTVSS

binding result [1]: binds
B24: 1.24b (VHH)
VHH: QVTLKESGGGLVKPGGSLRLSCAASGFTFSDYDMYWIRQAPGKGLEWVSYISRGGSVTYYADSVKGRFTISRDNAKNALYLQMNSLRAEDMAVYFCATEAPLRLGETPHAAFDIWGQGTMVTVSS

binding result [1]: binds
B27: 1.12b (VHH)
VHH: EVQLLESGGGVVKPGGSLRLSCAASGFTFSDYYMGWIRQAPGKGLEWISYISSSGSTIYYADSVKGRFTISRDNAKNSLYLQMNSLRAEDTAVYYCAREAPLRLGESPHDAFDIWGQGTMVTVSS

binding result [1]: binds
B29: 1.26b (VHH)
VHH: QVTLKESGGGLVKPGGSLRLSCAASGFTFSDNSMSWIRQAPGKGLEWVSYISSSGSTIYYADSVKGRFTISRDNAKNSLYLQMNTLRAEDTAVYYCAKEAPLRLGESPHDAFDIWGQGTMVTVSS

Continued, binder first:

B1: 1.40b (VHH)
VHH: EVQLVESGGGLVKPGGSLRLSCAASGFTFSDSSMSWIRQAPGRGLEWISYISSGGGIIYYTDSVKGRFTISRDNAKNSLYLQMNSLRVEDTAVYYCAKEAPLRLGESPHDAFDIWGHGTMVTVSS
binding result [1]: binds

B3: 1.92b-4GS-1.103a (other)
chain: EVQLVESGGGLVKPGGSLRLSCAASGFTFSDESMTWMRQAPGKGLEWVSYISSGGGVKFYADSVKGRFTISRDNAKNSLYLQMNSLRAEDTAVYYCAREAPLRLGESPHDAFDISGQGTMVTVSSGGGGSGGGGSGGGGSGGGGSEVQLVESGGGVVRPGGSLRLSCAASGFTFDDYAMSWVRQAPGKGLEWVSGITWNGGSTGYADSVKDRFTISRDNAKNSLYLQMNSLRAEDTALYYCVRDKYSYAWSYDDFDIWGQGTMVTVSS
EC50 (M), NFAT-Luciferase reporter gene assay [2]: 1.2e-09 M

B5: 1.57a (VHH)
VHH: QVQLVESGGGVVRPGGSLRLSCAASGFTFDDYGMSWVRQAPGKGLEWVSGISRNGGSTGYTASVKDRFTISRDNAKNSLYLQMNSLRADDTAMYYCAREKYSSGWSYDDFDIWGQGTMVTVSS
binding result [1]: binds

B6: 1.55a (VHH)
VHH: EVQLVESGGGVVRPGGSLRLSCAASGFTFDDYGMSWVRQPPGKGLEWVSGISRNGGSAGYSDSAKDRFTISRDNAKNSLYLQMNSLRADDTAMYYCAREKYSSGWSYDDFDIWGQGTMVTVSS
binding result [1]: binds

B8: 1.54a (VHH)
VHH: QVQLVESGGGVVRPGGSLRLSCAASGFTFDDYGMSWVRQPPGKGLEWVSGISRNGGSAGYSDSAKDRFTISRDNAKNSLYLQMNSLRADDTAMYYCAREKYSSGWSYDDFDIWGQGTMVTVSS
binding result [1]: binds

B9: 1.90a (VHH)
VHH: EVQLVESGGGVVRPGGSLRLSCAASGFTFDDYAWSWVRQAPGKGLEWVSGITWNGGSTGYADSVKDRFTISRDNAKNSLYLQMNSLRAEDTALYYCVRDKYSYAWSYDGFDIWGQGTMVTVSS
binding result [1]: binds

B11: 1.98a (VHH)
VHH: EVQLVESGGGVVRPGGSLRLSCAASGFTFDDYAMSWVRQAPGKGLEWVSGITWLGGSTGYADSVKDRFTISRDNAKNSLYLQMNSLRAEDTALYYCVRDKYSYAWSYDGFDIWGQGTMVTVSS
binding result [1]: binds

B12: 1.91a (VHH)
VHH: EVQLVESGGGVVRPGGSLRLSCAASGFTFDDYARSWVRQAPGKGLEWVSGITWNGGSTGYADSVKDRFTISRDNAKNSLYLQMNSLRAEDTALYYCVRDKYSYAWSYDGFDIWGQGTMVTVSS
binding result [1]: binds

B14: 1.99a (VHH)
VHH: EVQLVESGGGVVRPGGSLRLSCAASGFTFDDYAMSWVRQAPGKGLEWVSGITWNGGSTGYADSVKGRFTISRDNAKNSLYLQMNSLRAEDTALYYCVRDKYSYAWSYDGFDIWGQGTMVTVSS
binding result [1]: binds

B16: 1.95a (VHH)
VHH: EVQLVESGGGVVRPGGSLRLSCAASGFTFDDYAMSWVRQAPGKGLEWVSGITWSGGSTGYADSVKDRFTISRDNAKNSLYLQMNSLRAEDTALYYCVRDKYSYAWSYDGFDIWGQGTMVTVSS
binding result [1]: binds

B18: 1.102a (VHH)
VHH: EVQLVESGGGVVRPGGSLRLSCAASGFTFDDYAMSWVRQAPGKGLEWVSGITWNGGSTGYADSVKDRFTISRDNAKNSLYLQMNSLRAEDTALYYCVRDKYSYAWSYDVFDIWGQGTMVTVSS
binding result [1]: binds

B19: 1.101a (VHH)
VHH: EVQLVESGGGVVRPGGSLRLSCAASGFTFDDYAMSWVRQAPGKGLEWVSGITWRGGSTGYADSVKDRFTISRDNAKNSLYLQMNSLRAEDTALYYCVRDKYSYAWSYDGFDIWGQGTMVTVSS
binding result [1]: binds

B20: 1.93a (VHH)
VHH: EVQLVESGGGVVRPGGSLRLSCAASGFTFDDYAVSWVRQAPGKGLEWVSGITWNGGSTGYADSVKDRFTISRDNAKNSLYLQMNSLRAEDTALYYCVRDKYSYAWSYDGFDIWGQGTMVTVSS
binding result [1]: binds

B22: 1.77b-2GS-1.21a (other)
chain: EVQLVESGGGLVKPGGSLRLSCAASGFTFSDSSMTWMRQAPGKGLEWVSYISSGGGVKFYTDSVKGRFTISRDNAKNSLYLQMNSLRAEDTAVYYCAREAPLRLGESPHDAFDISGQGTMVTVSSGGGGSGGGGSEVQLVESGGGLVQPGRSLRLSCAASGFTFDDYAMHWVRQAPGKDLEWVSGISWNGGSMGYAASVKGRFTISRDNAKNSLYLQMNSLRAEDTALYYCVREKGPGLTGSTADYYGLDVWGQGTMVTVSS
EC50 (M), NFAT-Luciferase reporter gene assay [2]: 2.1e-09 M

B23: 1.56a (VHH)
VHH: QVQLVESGGGVVRLGGSLRLSCAASGFSFVDYGMSWVRQAPGQGLEWVSGISRNGGSTGYADSVKDRFTISRDNAKNTLYLQMNSLRAEDTALYYCARDPYSSGWSYDSFDIWGQGTMVTVSS
binding result [1]: binds

B25: 1.28b (VHH)
VHH: QITLKESGGGLVKPGGSLRLSCAASGFTFSDYDMYWIRQAPGKGLEWVSYISRGGSVTYYADSVKGRFTISRDNAKNALYLQMNSLRAEDMAVYFCATEAPLRLGETPHAAFDIWGQGTMVTVSS
binding result [1]: binds

B26: 1.33b (VHH)
VHH: QITLKESGGGLVKPGGSLRLSCAASGFTFSDYDMYWVRQAPGKGLEWVSYISRGGSVTYYADSVKGRFTISRDNAKNALYLQMNSLRAEDMAVYFCATEAPLRLGETPHAAFDIWGQGTMVTVSS
binding result [1]: binds

B28: 1.15b (VHH)
VHH: QVQLVESGGGLVKPGGSLRLSCAASGFTFSDNSMSWIRQAPGKGLEWVSYISSSGSTIYYADSVKGRFTISRDNAKNSLYLQMNTLRAEDTAVYYCAKEAPLRLGESPHDAFDIWGQGTMVTVSS
binding result [1]: binds

B30: 1.25b (VHH)
VHH: QVTLKESGGGLVKPGGSLRLSCAASGFTFSDYYMSWFRQAPGKEREWISFISSSGSTTYYADSVKGRFTISRDNAKNSLYLQMNSLRAEDTAVYYCAREAPLRLGESPHDAFDFWGQGTMVTVSS
binding result [1]: binds
